B1: mouse Smad4, FLAG-tagged at the C-terminus, in vitro translated (other, UniProt P97471 1-551, looked up)
chain: MDNMSITNTPTSNDACLSIVHSLMCHRQGGESETFAKRAIESLVKKLKEKKDELDSLITAITTNGAHPSKCVTIQRTLDGRLQVAGRKGFPHVIYARLWRWPDLHKNELKHVKYCQYAFDLKCDSVCVNPYHYERVVSPGIDLSGLTLQSNAPSMLVKDEYVHDFEGQPSLPTEGHSIQTIQHPPSNRASTETYSAPALLAPAESNATSTTNFPNIPVASTSQPASILAGSHSEGLLQIASGPQPGQQQNGFTAQPATYHHNSTTTWTGSRTAPYTPNLPHHQNGHLQHHPPMPPHPGHYWPVHNELAFQPPISNHPAPEYWCSIAYFEMDVQVGETFKVPSSCPVVTVDGYVDPSGGDRFCLGQLSNVHRTEAIERARLHIGKGVQLECKGEGDVWVRCLSDHAVFVQSYYLDREAGRAPGDAVHKIYPSAYIKVFDLRQCHRQMQQQAATAQAAAAAQAAAVAGNIPGPGSVGGIAPAISLSAAAGIGVDDLRRLCILRMSFVKGWGPDYPRQSIKETPCWIEIHLHRALQLLDEVLHTMPIADPQPLD
notes: also called 35S-F/Smad4; not shown: C-terminal FLAG tag
B2: human Smad2, FLAG-tagged at the C-terminus, in vitro translated (other, UniProt Q15796 1-467, looked up)
chain: MSSILPFTPPVVKRLLGWKKSAGGSGGAGGGEQNGQEEKWCEKAVKSLVKKLKKTGRLDELEKAITTQNCNTKCVTIPSTCSEIWGLSTPNTIDQWDTTGLYSFSEQTRSLDGRLQVSHRKGLPHVIYCRLWRWPDLHSHHELKAIENCEYAFNLKKDEVCVNPYHYQRVETPVLPPVLVPRHTEILTELPPLDDYTHSIPENTNFPAGIEPQSNYIPETPPPGYISEDGETSDQQLNQSMDTGSPAELSPTTLSPVNHSLDLQPVTYSEPAFWCSIAYYELNQRVGETFHASQPSLTVDGFTDPSNSERFCLGLLSNVNRNATVEMTRRHIGRGVRLYYIGGEVFAECLSDSAIFVQSPNCNQRYGWHPATVCKIPPGCNLKIFNNQEFAALLAQSVNQGFEAVYQLTRMCTIRMSFVKGWGAEYRRQTVTSTPCWIELHLNGPLQWLDKVLTQMGSPSVRCSSMS
notes: also called 35S-F/Smad2; not shown: C-terminal FLAG tag

Target: T1, Xenopus Smurf1 (Xenopus, UniProt Q9PUN2 1-731)
T1 construct: Used as a yeast two-hybrid fusion and as in vitro translated 35S-Met-labelled protein; also called Xsmurf; 35S-labelled Smurf1
T1 sequence (Q9PUN2 whole entry, the tested form may be a part): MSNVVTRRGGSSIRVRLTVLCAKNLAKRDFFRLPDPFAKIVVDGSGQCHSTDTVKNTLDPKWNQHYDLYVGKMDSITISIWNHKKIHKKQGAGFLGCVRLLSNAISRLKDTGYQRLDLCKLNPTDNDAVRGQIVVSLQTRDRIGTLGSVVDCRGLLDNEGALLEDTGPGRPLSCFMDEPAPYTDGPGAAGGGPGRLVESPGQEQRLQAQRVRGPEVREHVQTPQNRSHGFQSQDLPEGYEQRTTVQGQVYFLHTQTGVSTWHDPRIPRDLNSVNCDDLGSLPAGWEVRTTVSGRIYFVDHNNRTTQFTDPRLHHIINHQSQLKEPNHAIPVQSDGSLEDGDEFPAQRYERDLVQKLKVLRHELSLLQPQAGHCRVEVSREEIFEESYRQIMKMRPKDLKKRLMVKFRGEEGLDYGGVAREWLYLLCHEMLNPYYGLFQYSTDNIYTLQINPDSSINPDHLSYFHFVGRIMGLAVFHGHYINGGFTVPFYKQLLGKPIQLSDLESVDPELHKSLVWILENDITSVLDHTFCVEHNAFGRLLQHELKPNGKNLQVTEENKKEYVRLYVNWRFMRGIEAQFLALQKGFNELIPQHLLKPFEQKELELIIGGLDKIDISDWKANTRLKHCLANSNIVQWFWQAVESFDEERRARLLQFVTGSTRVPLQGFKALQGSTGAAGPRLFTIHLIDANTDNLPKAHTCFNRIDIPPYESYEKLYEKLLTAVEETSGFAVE
Experiment: in vitro co-immunoprecipitation: 35S-Smurf1 on FLAG-Smad bound to anti-FLAG beads
Experimental: (A) Smurf1 interacts with Smad1. Yeast two-hybrid assays were done on yeast co-transformed with combinations of Xenopus Smurf1 (Xsmurf) together with Smad1, Smad2, lamin or vector alone. […] Co-immunoprecipitation on in vitro translated proteins was done by incubating 35S-labelled Smurf1 together with in vitro translated, 35S-Met trace-labelled Flag-tagged Smad1 (35S-F/Smad1), Smad2 (35S-F/Smad2) or Smad4 (35S-F/Smad4) immobilized on anti-Flag affinity gel matrices. After washing, bound proteins were eluted and analyzed by SDS-PAGE (right panel).

Row | Binder | binding result
1 | B1 | no binding
2 | B2 | no binding
